Measured values as given in article PMC2557045.

Assays:
[1] = molecular target: atToc159-A864R (expressed from CaMV35S::atTOC159-A864R in ppi2 plants, A864R:ppi2) (Arabidopsis thaliana) (UniProt O81283); assay: cross-linking
[2] = substrate: Nc1nc2c(ncn2[C@@H]2O[C@H](COP(=O)(O)OP(=O)(O)OP(=O)(O)O)[C@@H](O)[C@H]2O)c(=O)[nH]1; assay: GTP hydrolysis assay, immunoprecipitated protein on Sepharose beads; format: biochemical, Arabidopsis thaliana; conditions: antibody/protein A-Sepharose-bound receptor
[3] = substrate: Nc1nc2c(ncn2[C@@H]2O[C@H](COP(=O)(O)OP(=O)(O)OP(=O)(O)O)[C@@H](O)[C@H]2O)c(=O)[nH]1; assay: GTP hydrolysis assay, purified soluble G-domain; format: biochemical, Arabidopsis thaliana

fold of coimmunoprecipitated preSSu against wild-type atToc159 [1]	Molecule	Km [2]	kcat [2]	Km [3]	kcat [3]
3 fold	preSSu ([35S]-labeled chloroplast preprotein) (natural protein)				
	atToc159 (full-length) (Arabidopsis thaliana) (protein) MDSKSVTPEPTNPFYASSGQSGKTYASVVAAAAAAAADKEDGGAVSSAKELDSSSEAVSGNSDKVGADDLSDSEKEKPNLVGDGKVSDEVDGSLKEDSTTPEATPKPEVVSGETIGVDDVSSLSPKPEAVSDGVGVVEENKKVKEDVEDIKDDGESKIENGSVDVDVKQASTDGESESKVKDVEEEDVGTKKDDEGESELGGKVDVDDKSDNVIEEEGVELTDKGDVIVNSSPVESVHVDVAKPGVVVVGDAEGSEELKINADAETLEVANKFDQIGDDDSGEFEPVSDKAIEEVEEKFTSESDSIADSSKLESVDTSAVEPEVVAAESGSEPKDVEKANGLEKGMTYAEVIKAASAVADNGTKEEESVLGGIVDDAEEGVKLNNKGDFVVDSSAIEAVNVDVAKPGVVVVGDVEVSEVLETDGNIPDVHNKFDPIGQGEGGEVELESDKATEEGGGKLVSEGDSMVDSSVVDSVDADINVAEPGVVVVGAAKEAVIKEDDKDDEVDKTISNIEEPDDLTAAYDGNFELAVKEISEAAKVEPDEPKVGVEVEELPVSESLKVGSVDAEEDSIPAAESQFEVRKVVEGDSAEEDENKLPVEDIVSSREFSFGGKEVDQEPSGEGVTRVDGSESEEETEEMIFGSSEAAKQFLAELEKASSGIEAHSDEANISNNMSDRIDGQIVTDSDEDVDTEDEGEEKMFDTAALAALLKAATGGGSSEGGNFTITSQDGTKLFSMDRPAGLSSSLRPLKPAAAPRANRSNIFSNSNVTMADETEINLSEEEKQKLEKLQSLRVKFLRLLQRLGHSAEDSIAAQVLYRLALLAGRQAGQLFSLDAAKKKAVESEAEGNEELIFSLNILVLGKAGVGKSATINSILGNQIASIDAFGLSTTSVREISGTVNGVKITFIDTPGLKSAAMDQSTNAKMLSSVKKVMKKCPPDIVLYVDRLDTQTRDLNNLPLLRTITASLGTSIWKNAIVTLTHAASAPPDGPSGTPLSYDVFVAQCSHIVQQSIGQAVGDLRLMNPSLMNPVSLVENHPLCRKNREGVKVLPNGQTWRSQLLLLCYSLKVLSETNSLLRPQEPLDHRKVFGFRVRSPPLPYLLSWLLQSRAHPKLPGDQGGDSVDSDIEIDDVSDSEQEDGEDDEYDQLPPFKPLRKTQLAKLSNEQRKAYFEEYDYRVKLLQKKQWREELKRMKEMKKNGKKLGESEFGYPGEEDDPENGAPAAVPVPLPDMVLPPSFDSDNSAYRYRYLEPTSQLLTRPVLDTHGWDHDCGYDGVNAEHSLALASRFPATATVQVTKDKKEFNIHLDSSVSAKHGENGSTMAGFDIQNVGKQLAYVVRGETKFKNLRKNKTTVGGSVTFLGENIATGVKLEDQIALGKRLVLVGSTGTMRSQGDSAYGANLEVRLREADFPIGQDQSSFGLSLVKWRGDLALGANLQSQVSVGRNSKIALRAGLNNKMSGQITVRTSSSDQLQIALTAILPIAMSIYKSIRPEATNDKYSMY	3.2 ± 0.34 µM	0.000233 ± 3.67e-05 s⁻¹		
	atToc159 (full-length) (Arabidopsis thaliana; A864R) (protein) MDSKSVTPEPTNPFYASSGQSGKTYASVVAAAAAAAADKEDGGAVSSAKELDSSSEAVSGNSDKVGADDLSDSEKEKPNLVGDGKVSDEVDGSLKEDSTTPEATPKPEVVSGETIGVDDVSSLSPKPEAVSDGVGVVEENKKVKEDVEDIKDDGESKIENGSVDVDVKQASTDGESESKVKDVEEEDVGTKKDDEGESELGGKVDVDDKSDNVIEEEGVELTDKGDVIVNSSPVESVHVDVAKPGVVVVGDAEGSEELKINADAETLEVANKFDQIGDDDSGEFEPVSDKAIEEVEEKFTSESDSIADSSKLESVDTSAVEPEVVAAESGSEPKDVEKANGLEKGMTYAEVIKAASAVADNGTKEEESVLGGIVDDAEEGVKLNNKGDFVVDSSAIEAVNVDVAKPGVVVVGDVEVSEVLETDGNIPDVHNKFDPIGQGEGGEVELESDKATEEGGGKLVSEGDSMVDSSVVDSVDADINVAEPGVVVVGAAKEAVIKEDDKDDEVDKTISNIEEPDDLTAAYDGNFELAVKEISEAAKVEPDEPKVGVEVEELPVSESLKVGSVDAEEDSIPAAESQFEVRKVVEGDSAEEDENKLPVEDIVSSREFSFGGKEVDQEPSGEGVTRVDGSESEEETEEMIFGSSEAAKQFLAELEKASSGIEAHSDEANISNNMSDRIDGQIVTDSDEDVDTEDEGEEKMFDTAALAALLKAATGGGSSEGGNFTITSQDGTKLFSMDRPAGLSSSLRPLKPAAAPRANRSNIFSNSNVTMADETEINLSEEEKQKLEKLQSLRVKFLRLLQRLGHSAEDSIAAQVLYRLALLAGRQAGQLFSLDAAKKKAVESEAEGNEELIFSLNILVLGKRGVGKSATINSILGNQIASIDAFGLSTTSVREISGTVNGVKITFIDTPGLKSAAMDQSTNAKMLSSVKKVMKKCPPDIVLYVDRLDTQTRDLNNLPLLRTITASLGTSIWKNAIVTLTHAASAPPDGPSGTPLSYDVFVAQCSHIVQQSIGQAVGDLRLMNPSLMNPVSLVENHPLCRKNREGVKVLPNGQTWRSQLLLLCYSLKVLSETNSLLRPQEPLDHRKVFGFRVRSPPLPYLLSWLLQSRAHPKLPGDQGGDSVDSDIEIDDVSDSEQEDGEDDEYDQLPPFKPLRKTQLAKLSNEQRKAYFEEYDYRVKLLQKKQWREELKRMKEMKKNGKKLGESEFGYPGEEDDPENGAPAAVPVPLPDMVLPPSFDSDNSAYRYRYLEPTSQLLTRPVLDTHGWDHDCGYDGVNAEHSLALASRFPATATVQVTKDKKEFNIHLDSSVSAKHGENGSTMAGFDIQNVGKQLAYVVRGETKFKNLRKNKTTVGGSVTFLGENIATGVKLEDQIALGKRLVLVGSTGTMRSQGDSAYGANLEVRLREADFPIGQDQSSFGLSLVKWRGDLALGANLQSQVSVGRNSKIALRAGLNNKMSGQITVRTSSSDQLQIALTAILPIAMSIYKSIRPEATNDKYSMY	1.9 ± 0.30 µM	7e-05 ± 1.7e-06 s⁻¹		
	atToc159 G-domain (atToc159G) (Arabidopsis thaliana) (protein) IFSLNILVLGKAGVGKSATINSILGNQIASIDAFGLSTTSVREISGTVNGVKITFIDTPGLKSAAMDQSTNAKMLSSVKKVMKKCPPDIVLYVDRLDTQTRDLNNLPLLRTITASLGTSIWKNAIVTLTHAASAPPDGPSGTPLSYDVFVAQCSHIVQQSIGQAVGDLRLMNPSLMNPVSLVENHPLCRKNREGVKVLPNGQTWRSQLLLLCYSLKVLSETNSLLRPQEPLDHRK			9.0 ± 1.35 µM	0.000317 ± 2.5e-05 s⁻¹
